Laboratory results published in publication PMC3315485.

Columns and labels:
Test in all cases: MITOMI
[1] = system: MarA RTR (Escherichia coli); conditions: MITOMI at 295 K; buffer, salt and pH not given in the material; scale: ddG kJ/mol vs strongest site
[2] = system: MarA TRR (Escherichia coli); conditions: MITOMI at 295 K; buffer, salt and pH not given in the material
[3] = system: MarA RQR (Escherichia coli); conditions: MITOMI at 295 K; buffer, salt and pH not given in the material
[4] = system: MarA wild type (WQR) (Escherichia coli); conditions: MITOMI at 295 K; buffer, salt and pH not given in the material

Substance | binding signal [1] | also measured
mar site GAT | > 3.3 | 
mar site GAC | > 3.3 | binding signal (relative KA (strongest site = 1)) [2]: 1
mar site TCC |  | binding signal (relative KA (strongest site = 1)) [3]: 1
mar site GAG | > 3.3 | 
mar site GAA | > 3.3 | 
mar site GCA |  | binding signal (relative KA (strongest site = 1)) [4]: 1; binding signal (fold reduced affinity vs TCC) [3]: 1.6
